Test results: publication PMC8849274 (Oncotarget, 2022)

Legend:
Format in all cases: in vivo
[1] = Biodistribution in mice bearing CaSki xenografts; conditions: female, athymic nude, mouse, iv, total radioactivity; for tissue uptake at 1 h: 1 h p.i.; for tissue uptake at 24 h: 24 h p.i.
Description: (§1) Animals were supplied by Charles River Laboratories (Wilmington, MA, USA), and were handled in compliance with the Guidelines for Care and Use of Research Animals established by the Division of Comparative Medicine and the Animal Studies Committee of Washington University School of Medicine under protocol #20–0214. Female athymic nude mice were inoculated on the right flank with 10 × 10^6 CaSki or 5 × 10^6 BxPC-3 cells. Tumors were allowed to grow until they approached approximately 100 mm^3 in volume. Radiolabeled peptides were diluted in saline to a dose of 0.37 MBq (10 μCi) per 100 μl. […] For blocking experiments, non-PEGylated peptide (100 μg in 100 μL saline) was injected ten minutes before radiotracer. Blood, lung, liver, spleen, kidney, muscle, heart, bone, and tumor were harvested. The amount of radioactivity in each organ was determined by gamma counting, and the percent injected dose per gram of tissue (% ID/g) was calculated.

[2] = Biodistribution in mice bearing BxPC-3 xenografts; conditions: female, athymic nude, mouse, iv, total radioactivity, BxPC-3 tumor-bearing mice; for tissue uptake at 1 h: 1 h p.i.; for tissue uptake at 24 h: 24 h p.i.
Description: as §1

[3] = Small animal PET/CT imaging, BxPC-3 tumors; conditions: female, mouse, tumor (BxPC-3 xenograft), iv, total radioactivity, athymic nude mice bearing BxPC-3 tumors, 3.7 MBq i.v., without blocking, n = 3, read-out: SUVmax of tumors
Procedure: BxPC-3 cells (5 × 10^6) were inoculated in the right shoulder of female athymic nude mice 3–4 weeks before PET imaging sessions. All the experiments involving animals followed the Guidelines for Care and Use of Research Animals established by the Division of Comparative Medicine and the Animal Studies Committee of Washington University School of Medicine under protocol #20–0214. […] Mice were imaged with CT followed by static PET scans at 1, 4, and 24 h after tracer administration on an Inveon small animal PET/CT scanner (Siemens Medical Solutions, Malvern, PA, USA). Static images were collected for 20 min and reconstructed with the maximum a posteriori (MAP) reconstruction algorithm using the Inveon Reseach Workstation image display software (Siemens). Regions of interest (ROI) were selected based on co-registered anatomical CT images, and the associated radioactivity was measured using the Inveon software. The maximum standard uptake value (SUV) was calculated as the highest regional radioactivity concentration (nCi/cc) × animal weight (g)/decay-corrected amount of injected dose (nCi).

CC(C)C[C@H](NC(=O)[C@H](CC(=O)O)NC(=O)CNC(=O)[C@H](CCCNC(=N)N)NC(=O)[C@H](CC(C)C)NC(=O)[C@H](CC(N)=O)NC(=O)[C@@H]1CCCN1C(=O)[C@@H](NC(=O)[C@H](C)NC(=O)[C@H](CC(N)=O)NC(=O)CCOCCOCCOCCOCCOCCOCCOCCOCCOCCOCCOCCOCCOCCOCCOCCOCCOCCOCCOCCOCCOCCOCCOCCOCCOCCOCCOCCOCCNC(=O)CN1CCN(CC(=O)O)Cc2cccc(n2)CN(CC(=O)O)CC1)C(C)C)C(=O)N[C@@H](CCC(N)=O)C(=O)N[C@H](C(=O)N[C@@H](CC(C)C)C(=O)N[C@@H](C)C(=O)N[C@@H](CCC(N)=O)C(=O)N[C@@H](CCCCN)C(=O)N[C@H](C(=O)N[C@@H](C)C(=O)N[C@@H](CCCNC(=N)N)C(=O)N[C@H](C(=O)NCCOCCOCCOCCOCCOCCOCCOCCOCCOCCOCCOCCOCCOCCOCCOCCOCCOCCOCCOCCOCCOCCOCCOCCOCCOCCOCCOCCOCCC(N)=O)[C@@H](C)O)C(C)C)C(C)C [[^64Cu]Cu-PCTA-(PEG28)2-A20FMDV2, metal not drawn]
tissue uptake at 1 h ([1]; blood, CaSki tumor-bearing mice, 0.37 MBq i.v., gamma counting, mean, n = 4, read-out: Uptake in Blood): 0.54 %ID/g
tissue uptake at 24 h ([1]; blood, CaSki tumor-bearing mice, 0.37 MBq i.v., read-out: Radioactivity remaining in the blood): 0.53 ± 0.1 %ID/g
tissue uptake at 1 h ([1]; blood, CaSki tumor-bearing mice, non-PEGylated A20FMDV2 100 μg injected 10 min before radiotracer, read-out: Uptake in Blood, 1 h Block): 0.76 %ID/g
tissue uptake at 1 h ([1]; bone, CaSki tumor-bearing mice, 0.37 MBq i.v., gamma counting, mean, n = 4, read-out: Uptake in Bone): 0.54 %ID/g
tissue uptake at 1 h ([1]; bone, CaSki tumor-bearing mice, non-PEGylated A20FMDV2 100 μg injected 10 min before radiotracer, read-out: Uptake in Bone, 1 h Block): 0.39 %ID/g
tissue uptake at 1 h ([1]; heart, CaSki tumor-bearing mice, 0.37 MBq i.v., gamma counting, mean, n = 4, read-out: Uptake in Heart): 2.46 %ID/g
tissue uptake at 1 h ([1]; heart, CaSki tumor-bearing mice, non-PEGylated A20FMDV2 100 μg injected 10 min before radiotracer, read-out: Uptake in Heart, 1 h Block): 0.55 %ID/g
tissue uptake at 1 h ([1]; kidney, CaSki tumor-bearing mice, 0.37 MBq i.v., gamma counting, mean, n = 4, read-out: Uptake in Kidney): 114 ± 38.3 %ID/g
tissue uptake at 24 h ([1]; kidney, CaSki tumor-bearing mice, 0.37 MBq i.v., read-out: Uptake in Kidney): 24.4 ± 6.54 %ID/g
tissue uptake at 1 h ([1]; kidney, CaSki tumor-bearing mice, non-PEGylated A20FMDV2 100 μg injected 10 min before radiotracer, read-out: Uptake in Kidney, 1 h Block): 43.6 %ID/g
tissue uptake at 1 h ([1]; liver, CaSki tumor-bearing mice, 0.37 MBq i.v., gamma counting, mean, n = 4, read-out: Uptake in Liver): 6.81 %ID/g
tissue uptake at 1 h ([1]; liver, CaSki tumor-bearing mice, non-PEGylated A20FMDV2 100 μg injected 10 min before radiotracer, read-out: Uptake in Liver, 1 h Block): 3.04 %ID/g
tissue uptake at 1 h ([1]; lung, CaSki tumor-bearing mice, 0.37 MBq i.v., gamma counting, mean, n = 4, read-out: Uptake in Lung): 3.76 %ID/g
tissue uptake at 1 h ([1]; lung, CaSki tumor-bearing mice, non-PEGylated A20FMDV2 100 μg injected 10 min before radiotracer, read-out: Uptake in Lung, 1 h Block): 1.43 %ID/g
tissue uptake at 1 h ([1]; muscle, CaSki tumor-bearing mice, 0.37 MBq i.v., gamma counting, mean, n = 4, read-out: Uptake in Muscle): 1.23 %ID/g
tissue uptake at 1 h ([1]; muscle, CaSki tumor-bearing mice, non-PEGylated A20FMDV2 100 μg injected 10 min before radiotracer, read-out: Uptake in Muscle, 1 h Block): 0.43 %ID/g
tissue uptake at 1 h ([1]; spleen, CaSki tumor-bearing mice, 0.37 MBq i.v., gamma counting, mean, n = 4, read-out: Uptake in Spleen): 0.63 %ID/g
tissue uptake at 1 h ([1]; spleen, CaSki tumor-bearing mice, non-PEGylated A20FMDV2 100 μg injected 10 min before radiotracer, read-out: Uptake in Spleen, 1 h Block): 0.54 %ID/g
tissue uptake at 1 h ([1]; tumor (CaSki xenograft), 0.37 MBq i.v., gamma counting, mean, n = 4, read-out: Tumor Uptake): 1.63 ± 0.53 %ID/g
tissue uptake at 1 h ([1]; tumor (CaSki xenograft), non-PEGylated A20FMDV2 100 μg injected 10 min before radiotracer, read-out: Tumor uptake, 1 h Block): 0.67 ± 0.26 %ID/g
tissue uptake at 1 h ([2]; blood, 0.37 MBq i.v., gamma counting, mean, n = 4, read-out: Uptake in Blood): 0.27 %ID/g
tissue uptake at 1 h ([2]; blood, non-PEGylated A20FMDV2 100 μg injected 10 min before radiotracer, read-out: Uptake in Blood, 1 h Block): 0.27 %ID/g
tissue uptake at 1 h ([2]; bone, 0.37 MBq i.v., gamma counting, mean, n = 4, read-out: Uptake in Bone): 0.38 %ID/g
tissue uptake at 1 h ([2]; bone, non-PEGylated A20FMDV2 100 μg injected 10 min before radiotracer, read-out: Uptake in Bone, 1 h Block): 0.66 %ID/g
tissue uptake at 1 h ([2]; heart, 0.37 MBq i.v., gamma counting, mean, n = 4, read-out: Uptake in Heart): 1.9 %ID/g
tissue uptake at 1 h ([2]; heart, non-PEGylated A20FMDV2 100 μg injected 10 min before radiotracer, read-out: Uptake in Heart, 1 h Block): 0.27 %ID/g
tissue uptake at 1 h ([2]; 0.37 MBq i.v., gamma counting, mean, n = 4, read-out: Tumor Uptake): 3.86 ± 0.58 %ID/g
tissue uptake at 1 h ([2]; kidney, 0.37 MBq i.v., gamma counting, mean, n = 4, read-out: Uptake in Kidney): 105 ± 13.6 %ID/g
tissue uptake at 24 h ([2]; kidney, 0.37 MBq i.v., read-out: Uptake in Kidney): 28.6 ± 8.45 %ID/g
tissue uptake at 1 h ([2]; kidney, non-PEGylated A20FMDV2 100 μg injected 10 min before radiotracer, read-out: Uptake in Kidney, 1 h Block): 80.6 %ID/g
tissue uptake at 1 h ([2]; liver, 0.37 MBq i.v., gamma counting, mean, n = 4, read-out: Uptake in Liver): 1.94 %ID/g
tissue uptake at 1 h ([2]; liver, non-PEGylated A20FMDV2 100 μg injected 10 min before radiotracer, read-out: Uptake in Liver, 1 h Block): 1.68 %ID/g
tissue uptake at 1 h ([2]; lung, 0.37 MBq i.v., gamma counting, mean, n = 4, read-out: Uptake in Lung): 2.58 %ID/g
tissue uptake at 1 h ([2]; lung, non-PEGylated A20FMDV2 100 μg injected 10 min before radiotracer, read-out: Uptake in Lung, 1 h Block): 1.25 %ID/g
tissue uptake at 1 h ([2]; muscle, 0.37 MBq i.v., gamma counting, mean, n = 4, read-out: Uptake in Muscle): 1.13 %ID/g
tissue uptake at 1 h ([2]; muscle, non-PEGylated A20FMDV2 100 μg injected 10 min before radiotracer, read-out: Uptake in Muscle, 1 h Block): 0.28 %ID/g
tissue uptake at 1 h ([2]; spleen, 0.37 MBq i.v., gamma counting, mean, n = 4, read-out: Uptake in Spleen): 0.28 %ID/g
tissue uptake at 1 h ([2]; spleen, non-PEGylated A20FMDV2 100 μg injected 10 min before radiotracer, read-out: Uptake in Spleen, 1 h Block): 0.24 %ID/g
tissue uptake at 4 h ([2]; tumor (BxPC-3 xenograft), 0.37 MBq i.v., 4 h p.i.): 3.09 ± 0.77 %ID/g
tissue uptake at 24 h ([2]; tumor (BxPC-3 xenograft), 0.37 MBq i.v., read-out: Tumor Uptake): 2.45 ± 0.57 %ID/g
tissue uptake at 1 h ([2]; tumor (BxPC-3 xenograft), non-PEGylated A20FMDV2 100 μg injected 10 min before radiotracer, read-out: Tumor uptake, 1 h Block): 0.75 ± 0.09 %ID/g
SUV at 1 h ([3]; PET at 1 h): 0.46 ± 0.04 SUV
SUV at 4 h ([3]; PET at 4 h): 0.54 ± 0.05 SUV
SUV at 24 h ([3]; PET at 24 h): 0.74 ± 0.21 SUV
